Source: publication PMC12319226 (Frontiers in Bioinformatics, 2025)
Residue numbers refer to the chain shown, from its start.

How the values were obtained:
Assay in all cases: BLI
Details in all cases: both partners purified
fHbp m001688 = target: T1, fHbp m001688 (Neisseria meningitidis, engineered fHbp …, point mutant)
T1 chain: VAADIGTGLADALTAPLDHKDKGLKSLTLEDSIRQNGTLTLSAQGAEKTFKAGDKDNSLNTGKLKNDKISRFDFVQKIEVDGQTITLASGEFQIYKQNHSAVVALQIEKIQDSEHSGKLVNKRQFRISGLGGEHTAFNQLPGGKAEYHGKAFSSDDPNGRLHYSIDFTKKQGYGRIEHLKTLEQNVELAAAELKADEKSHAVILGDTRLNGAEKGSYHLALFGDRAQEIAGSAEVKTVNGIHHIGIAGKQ

fHbp m002333 = target: T2, fHbp m002333 (Neisseria meningitidis, engineered fHbp …, chimera)
T2 chain: T1 chain with L209Y, G211S, N239E, G240S

fHbp m002417 = target: T3, fHbp m002417 (Neisseria meningitidis fHbp v3.28, …, chimera)
T3 chain: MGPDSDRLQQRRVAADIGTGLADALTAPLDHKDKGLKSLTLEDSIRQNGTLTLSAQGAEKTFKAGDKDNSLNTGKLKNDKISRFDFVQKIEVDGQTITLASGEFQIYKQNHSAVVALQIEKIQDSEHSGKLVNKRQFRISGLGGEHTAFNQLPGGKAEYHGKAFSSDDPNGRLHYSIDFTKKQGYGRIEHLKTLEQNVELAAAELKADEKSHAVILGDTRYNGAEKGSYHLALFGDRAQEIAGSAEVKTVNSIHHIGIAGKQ

fHbp m001118 = target: T4, fHbp m001118 (Neisseria meningitidis fHbp v3.28-based …, point mutant)
T4 chain: T3 chain with Y221L, N222G, G223S, N251E, S252G

fHbp m001119 = target: T5, fHbp m001119 (Neisseria meningitidis fHbp v3.28-based …, point mutant)
T5 chain: T3 chain with Y221L, N222G, G223S, N251E

fHbp m001177 = target: T6, fHbp m001177 (Neisseria meningitidis fHbp v3.28-based …, point mutant)
T6 chain: T3 chain with Y221L, N222G, T249S, S252A

fHbp m001199 = target: T7, fHbp m001199 (Neisseria meningitidis fHbp v3.28-based …, point mutant)
T7 chain: T3 chain with Y221L, N222G, N251E, S252G

fHbp m001497 = target: T8, fHbp m001497 (Neisseria meningitidis, fHbp …, point mutant)
T8 chain: T3 chain with Y221L, G223Q, T249S, N251E

fHbp m001607 = target: T9, fHbp m001607 (Neisseria meningitidis, fHbp …, point mutant)
T9 chain: T3 chain with Y221L, G223S, S252G

B1: chimeric antibody h12C1 (antibody, V domains shown)
VH: QVQLQESGPELVKPGASVKISCKASGYSFSDYNMSWVKQSNGKSLEWIGIIDPKYGTINYNQKFKGKATLTVDQASSTAYMQLNSLTSEDSAVYYCVRDYYGSSYFDYWGQGTTLTVSS
VL: DIVLTQSPSSIYASLGERVTLTCKASQDIHNYLNWFQQKPGKSPKTLIYRANRLVDGVPSRFSGGGSGQDYSLTISSLEFEDIGIYYCLQYDEFPPTFGGGTRLEIK
notes: also called humanized 12C1; source: Expi293, purified (MabSelect SuRe, SEC); copies: 2 + 2
Kd (fHbp m001688): 53.8 nM
koff (fHbp m001688): 0.0106 s⁻¹
kon (fHbp m001688): 197000 ± 3980 M⁻¹ s⁻¹
Kd (fHbp m002333): 166 nM
koff (fHbp m002333): 0.01686 ± 0.000166 s⁻¹
kon (fHbp m002333): 102000 ± 4590 M⁻¹ s⁻¹
Kd (fHbp m002417): 95.7 nM
koff (fHbp m002417): 0.00962 s⁻¹
kon (fHbp m002417): 101000 ± 1890 M⁻¹ s⁻¹
Kd (fHbp m001118): 42 nM
koff (fHbp m001118): 0.0103 s⁻¹
kon (fHbp m001118): 245000 ± 3100 M⁻¹ s⁻¹
Kd (fHbp m001119): 0.957 nM
koff (fHbp m001119): 0.000266 s⁻¹
kon (fHbp m001119): 278300 ± 1110 M⁻¹ s⁻¹
Kd (fHbp m001177): 92.7 nM
koff (fHbp m001177): 0.02257 ± 0.000177 s⁻¹
kon (fHbp m001177): 244000 ± 9380 M⁻¹ s⁻¹
Kd (fHbp m001199): 25.1 nM
koff (fHbp m001199): 0.0095 s⁻¹
kon (fHbp m001199): 378900 ± 3300 M⁻¹ s⁻¹
Kd (fHbp m001497): 3.06 nM
koff (fHbp m001497): 0.000593 s⁻¹
kon (fHbp m001497): 193000 ± 2790 M⁻¹ s⁻¹
Kd (fHbp m001607): 32.9 nM
koff (fHbp m001607): 0.012 s⁻¹
kon (fHbp m001607): 366000 ± 13300 M⁻¹ s⁻¹

B2: mAb 1E6 (human) (antibody, V domains shown)
VH: EVQLVQSGAEVKKPGSSVKVSCKASGGTVIDYPITWVRQAPGQGLEWVGGFVPLFRTSNYGQKFQGRVTITADKSTSTASMELNSLTSEDTAIYYCARGDTAMGPFDYWGQGTLVTVSS
VL: SYVLTQPPSLSVAPGKTATLTCGGNNIAGKTVHWYQQRPGQAPVLVISYDSDRPSGIPERFSGSNSANTATLTISRVEAGDEADYYCQVWDRNSDHWVFGGGTKLTVL
notes: source: Expi293, purified (MabSelect SuRe, SEC); copies: 2 + 2
Kd (fHbp m001688): 0.937 nM
koff (fHbp m001688): 0.000258 s⁻¹
kon (fHbp m001688): 275900 ± 1570 M⁻¹ s⁻¹
Kd (fHbp m002333): 0.0267 nM
koff (fHbp m002333): 6.18e-06 s⁻¹
kon (fHbp m002333): 231300 ± 2110 M⁻¹ s⁻¹
Kd (fHbp m002417): 0.502 nM
koff (fHbp m002417): 0.000179 s⁻¹
kon (fHbp m002417): 356800 ± 1380 M⁻¹ s⁻¹
Kd (fHbp m001118): 0.235 nM
koff (fHbp m001118): 8.5e-05 s⁻¹
kon (fHbp m001118): 361600 ± 2210 M⁻¹ s⁻¹
Kd (fHbp m001119): 0.886 nM
koff (fHbp m001119): 0.000349 s⁻¹
kon (fHbp m001119): 393800 ± 1250 M⁻¹ s⁻¹
Kd (fHbp m001177): 0.609 nM
koff (fHbp m001177): 0.000279 s⁻¹
kon (fHbp m001177): 457500 ± 1660 M⁻¹ s⁻¹
Kd (fHbp m001199): 0.329 nM
koff (fHbp m001199): 0.000132 s⁻¹
kon (fHbp m001199): 400500 ± 3250 M⁻¹ s⁻¹
Kd (fHbp m001497): 0.563 nM
koff (fHbp m001497): 0.000176 s⁻¹
kon (fHbp m001497): 311700 ± 2460 M⁻¹ s⁻¹
Kd (fHbp m001607): 0.242 nM
koff (fHbp m001607): 0.000117 s⁻¹
kon (fHbp m001607): 484000 ± 5230 M⁻¹ s⁻¹
